For experiment [1], the target named is PICK1 (protein interacting with C-kinase 1) (UniProt Q9EP80).
Sequence of UniProt Q9EP80 (Q9EP80 whole entry): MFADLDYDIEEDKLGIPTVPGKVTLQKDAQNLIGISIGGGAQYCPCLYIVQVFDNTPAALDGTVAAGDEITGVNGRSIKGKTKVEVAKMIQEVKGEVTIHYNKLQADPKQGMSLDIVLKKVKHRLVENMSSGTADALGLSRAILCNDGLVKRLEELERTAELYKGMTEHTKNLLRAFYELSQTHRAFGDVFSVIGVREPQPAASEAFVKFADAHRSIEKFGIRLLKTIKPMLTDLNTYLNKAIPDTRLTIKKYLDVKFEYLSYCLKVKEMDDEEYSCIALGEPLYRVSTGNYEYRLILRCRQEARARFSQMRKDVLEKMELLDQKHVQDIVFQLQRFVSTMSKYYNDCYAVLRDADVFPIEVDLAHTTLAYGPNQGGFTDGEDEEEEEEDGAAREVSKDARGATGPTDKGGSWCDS

As for GCN4(7P14P)-HWLKV (peptide), the inhibition constant (Ki) (usually a dissociation constant, usually derived from enzyme kinetics or from competition with a known ligand) in experiment [1] amounted to 548 nM. That is a sub-micromolar value.

In experiment [1], GCN4-HWLKV (peptide) gave an inhibition constant Ki of 119 nM.

GCN4-GS (peptide): the stoichiometry N (as a rule, the number of molecules, sites or subunits per partner or assembly) with GCN4-GS (yeast) was determined as 2.

(Values after publication doi:10.1101/2023.03.03.530962.)
